Results reported in article PMC11533912 (Journal of Nuclear Medicine, 2024).
“Also recorded” adds a separate entry of the source.

What was measured:
[1] = Biodistribution in PC-3 tumor-bearing mice; assay type: in vivo, athymic nude male mice
Description: (§1) For all tumor studies, 1 × 10^6 PC-3 cells were implanted subcutaneously into the right flank of each mouse in a mixture of equal volumes of HC-Matrigel (high concentration; Corning) and RPMI medium (Gibco) and grown to a volume of about 200–300 mm^3.
(§2) PC-3 tumors were grown in male mice until an approximate tumor volume of 300 mm^3 was reached. […] The background was automatically subtracted from the counts. A standard was also used for decay correction, and the percent injected dose (%ID) per gram of tissue was calculated for each organ collected.
(§3) FIGURE 3. In vivo distribution of [^212Pb]Pb-DOTAM-GRPR1. (A) In athymic nude male mice carrying subcutaneous PC-3 tumors, 370 kBq of drug were administered and organs were collected from 5 mice per time point: 1, 4, and 24 h after injection. (B) At different specific activity in PC-3 tumor-bearing mice, 370 kBq per 28, 140, or 280 ng of DOTAM-GRPR1 were administered and organs were collected from 5 mice per time point: 1, 4, and 24 h after injection. Tissue uptake is expressed as %ID/g ± SD (n = 5). All tissues with uptake below 2% at 1 h were excluded from graph. ***P = 0.00013 between 280 ng of pancreas and 28 ng of pancreas.

[2] = Biodistribution in tumor-free CD-1 mice; assay type: in vivo
[3] = Biodistribution at different specific activity (28, 140, 280 ng peptide); assay type: in vivo, PC-3 tumor-bearing mice
Description: as §1, §2, §3

[4] = Radio-HPLC stability/oxidation of drug product with and without excipients; assay type: physicochemical
Description: DOTAM-GRPR1 (C77H119N23O17, Fig. 1) was manufactured by Macrocyclics using Fmoc solid-phase peptide synthesis. The peptide was isolated via reverse-phase high-performance liquid chromatography. Chelation was achieved by adding ^212Pb in ammonium acetate (Sigma-Aldrich) to DOTAM-GRPR1 alone or in the presence of 5% ethanol (Spectrum Chemical), up to 30 mM ascorbic acid (Honeywell), and 0.02% polysorbate 80 (J.T. Baker). Experiments were conducted for 10 min at either room temperature or 50°C.
Fractions were collected from the column every 6–10 s for up to 10 min and then analyzed for radiometric detection using an automatic γ-counter (Perkin Elmer Wizard^2 2470).
FIGURE 4. Radio–high-performance liquid chromatography showing optimized formulation conditions compared with no excipients added to chelation reaction. When chelation occurs with just ^212Pb and peptide, oxidation is visible at time of 0 h with percent main peak of 91% (A), which becomes unquantifiable at time of 24 h (B). However, with addition of ethanol, ascorbic acid, and polysorbate 80, percent main peak is 96% at time of 0 h (C) and remains high at 94% after 24 h (D). CPM = counts per minute; N/A = not applicable; T = time. […]

PC-3 xenograft tumors = test: α-imaging and biodistribution in PC-3 tumors of varying size; assay type: in vivo, mice
Description: as §1
Images were analyzed using Andor Solis software (ImageJ).
FIGURE 5. Biodistribution in varying-size tumors and drug microdistribution in tumor using α-imaging of [^212Pb]Pb-DOTAM-GRPR1. […] (B) Biodistribution of drug at 4 h after injection in tumors measuring 150 mm^3 (n = 5), 300 mm^3 (n = 6), 600 mm^3 (n = 4), and 900 mm^3 (n = 3). In left panel, tissue uptake is expressed as %ID/g ± SD (P < 0.05). Right panel is expressed as %ID ± SD. H&E = hematoxylin and eosin; LWH = length × width × height.

[5] = Toxicity (dose escalation) study in tumor-free nude mice
Description: Control mice received buffer only. Animals were weighed 3 times per week and monitored daily for signs of pain or distress over a 4-wk period after the last injection. Blood was sampled via the submandibular vein using potassium–ethylenediaminetetraacetic acid capillaries and tubes (Greiner Bio-One), and complete cell blood counts were performed using a VETSCAN HM5 hematology analyzer (Abaxis/Zoetis). Animals were euthanized at the scheduled termination or when the termination criteria were met.
Mice were euthanized when tumor volumes reached 1,000 mm^3 (length × width × height) or other predetermined termination criteria were met (weight loss > 15% for 2 consecutive days or 20% weight loss from initial weight, serious bleeding, necrosis or ulceration of the tumor, scruffiness or lack of grooming over 5 d, lethargy over 3 d, weakness/balance issues over 5 d, hunchback appearance, diarrhea, or hypothermia).

[6] = in vivo
[7] = in vivo; remark: listed apart in the source
[8] = 370 kBq per 28, 140 or 280 ng DOTAM-GRPR1, PC-3 tumor-bearing mice

CC(C)C[C@H](NC(=O)C[C@H](O)[C@H](CC(C)C)NC(=O)[C@H](Cc1c[nH]cn1)NC(=O)CNC(=O)[C@@H](NC(=O)[C@H](C)NC(=O)[C@H](Cc1c[nH]c2ccccc12)NC(=O)[C@H](CCC(N)=O)NC(=O)[C@@H](Cc1ccccc1)NC(=O)CCNC(=O)CCNC(=O)CN1CCN(CC(N)=O)CCN(CC(N)=O)CCN(CC(N)=O)CC1)C(C)C)C(N)=O [[^212Pb]Pb-DOTAM-GRPR1, metal not drawn]
PC-3 tumor uptake over time ([1]; 4–24 h after administration, 370 kBq, intravenous, athymic nude male mice, n = 5 per time point): remained constant for 4–24 h after drug administration | Washout, pancreas versus tumor ([1]; PC-3 tumor-bearing mice): faster washout was observed from the pancreas than from tumor tissues | tissue uptake at 1 h ([1]; mouse, PC-3 tumor, 1 h after administration, 370 kBq, intravenous (tail vein), athymic nude male mice, n = 5 per time point): ~5 %ID/g | Biodistribution profile, activity in nontumor tissues ([1]; nonclinical, mice): safe biodistribution profile with a considerably low activity in nontumor tissues | Tumor targeting ([1]; up to value, over 24 h, intravenous, GRPR-positive prostate tumor-bearing mice): up to 5 percent injected dose per gram | Kidney uptake compared with radiolabeled somatostatin receptor ligands such as [^212Pb]Pb-DOTAMTATE with renal blocker ([1]; without renal blocker, comparator ref 9): well below kidney retention values of radiolabeled somatostatin receptors ligands | Pancreas and kidney accumulation at 24 h ([2]; 24 h after injection, pancreas and kidneys, strain not clearly stated): significantly less accumulation by 24 h after injection | tissue uptake at 4 h ([2]; mouse, all tissues, intravenous, 4 h after drug administration, tumor-free CD-1 mice, 'well below'): < 10 %ID/g | Nontarget uptake ranking ([2]; pancreas and kidneys, strain not clearly stated): The pancreas and kidneys showed the highest nontarget uptake | Biodistribution profile / accumulation in normal organs ([2]; tumor-free CD-1 mice): did not reveal any unexpected accumulation in normal organs | Effect of low specific activity on tumor uptake [3, 8]: did not negatively impact tumor uptake | Effect of lowering specific activity on off-target accumulation [3, 8]: low specific activity reduced off-target accumulation; also recorded: further reduced off-target accumulation, especially in the pancreas | Reduction of pancreatic uptake on increasing peptide amount from 28 to 280 ng ([3]; 370 kBq per 28 vs 280 ng DOTAM-GRPR1, PC-3 tumor-bearing mice, n = 5 per time point, P = 0.00013): about 30% | Stability in optimized chelation formulation [4]: increased the stability of the drug well beyond 24 h | Correlation of tumor volume and tumor uptake (PC-3 xenograft tumors; 4 h after injection, tumors 150 (n = 5), 300 (n = 6), 600 (n = 4), 900 mm^3 (n = 3), visible in %ID/g but not in %ID): negative correlation between tumor volume and tumor uptake; also recorded: lower tumor uptake in large tumors (%ID/g but not %ID) | Microdistribution in PC-3 tumors (α-imaging, H&E) (PC-3 xenograft tumors; tumor sizes up to 900 mm^3, except necrotic areas): homogeneous distribution of the drug at various tumor sizes of up to 900 mm^3, except for the necrotic areas; also recorded: homogeneous microdistribution | Hematologic toxicity or weight loss ([5]; 1,665 kBq, 30 d, athymic nude male mice): no hematologic toxicity or weight loss | Survival in acute toxicity study ([5]; 1,665 kBq, full 30-d period, athymic nude male mice): all animals survived for the full 30-d period | Histopathologic examination ([5]; all groups, male athymic nude mice): all groups were essentially within the normal limits | Tolerability / signs of radiation or lead injury ([5]; doses used, 370–1,665 kBq single or 3 × 370 or 555 kBq, male athymic nude mice): well tolerated at the doses used, with no signs of radiation or lead injury | Body weight loss ([5]; highest dose: single 1,665 kBq or 3 fractionated doses of 555 kBq, tumor-free nude male mice): body weight loss was minimal after administration and was followed by body weight gain | Kidneys, gastrointestinal mucosa, bone marrow and other organs ([5]; histopathology, male athymic nude mice): unremarkable | Toxic dose ([5]; male athymic nude mice, intravenous): more than 1,665 kBq | Nontoxic dose ([5]; up to, mice, intravenous): up to 1,665 kBq | Effect of renal blockers on kidney retention [6]: neither agent reduced the kidney retention | Route of excretion [7]: predominantly renal route of excretion
